Experimental data: patent US20220177841A1, “EX VIVO METHODS FOR PRODUCING A T CELL THERAPEUTIC AND RELATED COMPOSITIONS AND METHODS” (Myst Therapeutics LLC, priority 2019, published 2022)

Test system: expanded human T cells from three healthy donors
Experiment: T cell adjuvant high throughput screen, total viable CD3+ cell count
Format: cell-based
Conditions: 62.5 IU/ml-1000 IU/ml; 6 days
Experimental: Cells were expanded from PBMC derived from Ficoll gradient separation from three healthy donor's apheresis material. […] Cells were next seeded into gas permeable 100M culture vessels and expanded for 7-14 days to achieve a large bank of T cells, and cryopreserved. […] Half of wells were additionally supplemented with 50 ng/mL OKT3, a human anti-CD3 monoclonal antibody. In total, 15 test adjuvant agents were tested for their impact on cell viability in the presence and absence of anti-CD3 activation (see Table E3). Cells were cultured for 6 days total, including a 50% medium exchange on culture day 3, and monitored for total viable CD3+ cell count.
Total viable CD3+ cell count for cells grown in the absence and presence of OKT3 stimulation are shown in FIGS. 27A-C and FIGS. 28A-C, respectively. The results shown are for the following concentrations of adjuvant: 10 μg/mL for tested antibodies (Tavolixizumab, Oxelumab, Ipilimumab, Tocilizumab, Urelumab, Pembrolizumab, Varlilumab, anti-GITR MK-1248, anto-human FasL); 25 μM for Z-VAD-FMK pan-caspase inhibitor; 250 nM for HSP inhibitor NVP-HSP990; and 1000 IU/mL for cytokine (IL-7, IL-15 or IL-21).

B1: IL-7: recombinant cytokine tested as T cell adjuvant (protein, UniProt P13232 26-177, looked up)
Interleukin-7: DCDIEGKDGKQYESVLMVSIDQLLDSMKEIGSNCLNNEFNFFKRHICDANKEGMFLFRAARKLRQFLKMNSTGDFDLHLLKVSEGTTILLNCTGQVKGRKPAALGEAQPTKSLEENKSLKEQKKLNDLCFLKRLLQEIKTCWNKILMGTKEH
dose response, cell number: cell number increased with increasing concentration
